Laboratory results: article PMC4384708, “Molecular imaging of angiogenesis after myocardial infarction by ^111In-DTPA-cNGR and ^99mTc-sestamibi dual-isotope myocardial SPECT” (EJNMMI Research, 2015)
Bridge positions count the residues as written; N and C are the ends. Peptide text beside a SMILES is read from it. * marks the point of attachment. X1 = N[C@@H](CSC1CC(=O)N(CC2CCC(C(=O)*)CC2)C1=O)C(=O)NCCCC[C@@H](C(=O)O)N(CCN(CC(=O)O)CC(=O)O)CCN(CC(=O)O)CC(=O)O

Legend:
in vivo [1] = conditions: male, Swiss, mouse, heart, iv, mean ± S.E.M.
Description: (§1) MI was induced in 10- to 12-week old male Swiss mice by ligation of the left anterior descending coronary artery (LAD) (n = 7), as previously described. The angiogenesis imaging protocol was performed 7 days after the LAD ligation. A group of non-operated male Swiss mice (n = 5) was used as control. A variable number of animals were available for analysis per experiment. For SPECT scans, seven MI mice and five control mice were used while for biodistribution purposes ≥5 MI mice and ≥4 control mice were used. Furthermore, a group of six 10- to 12-week old male Swiss mice were bilaterally, subcutaneously implanted in the flanks with Matrigel (Table 1). […] All animals were held under the guidelines of the animal care facility (Maastricht University). All animal experiments were approved by the Committee for Animal Welfare of Maastricht University.
Mice were anesthetised with isoflurane (induction 2.5%; maintenance; 1.5%), a catheter was placed in the tail vein and the animals were positioned in the micro-SPECT camera (MiLabs, Utrecht, The Netherlands).
U-SPECT-II reconstruction software version 2.38 (MiLabs, Utrecht, The Netherlands) was used to reconstruct images. ^99mTc and ^111In images were reconstructed by selecting the photopeak (PP) and background (BG) windows as indicated in Figure 1.
To allow quantification of radiotracer uptake in vivo, conversion factors (CFs) were determined for the 0.6-mm collimator system in a representative phantom (20 ml) for ^99mTc and/or ^111In. During the SPECT reconstruction, the total amount of counts was distributed over the different voxels, resulting in a counts/voxel expression for the average concentration of counts. Taking into account the voxel volume (Vv), the CFs are calculated using equation (a):a ConversionfactorMBq=ActivityconcentrationMBq/ml/SPECTcountspervoxel/Vvml
(§2) The PMOD 2.95 cardiac tool PCARD (PMOD Technologies, Zürich, Switzerland) was used to segment the heart in the 17-segment model according to the American Heart Association (AHA) guidelines. For both the ^99mTc-sestamibi and ^111In-DTPA-cNGR images, the uptake was measured for each segment and expressed as mean standardised uptake value (SUVmean) using equation (b).b SUV=SPECTcountspervoxel×CF/VvMBq/ml×Bodyweightg/InjecteddoseMBq
For body weight, we assumed that 1 g of body weight equalled 1 ml.

in vivo [2] = conditions: 2 h p.i., gamma counting, mean ± SEM; for urinary excretion (urine radioactivity): i.v.; for tissue uptake at 2 h: male, Swiss, mouse, iv, total radioactivity
Description: In order to quantify the absolute uptake of ^111In-DTPA-cNGR in the different heart pieces, gamma counting was performed using an automated NaI(Tl) gamma counter (Wallac Wizard, Turku, Finland). Additionally, we dissected the vital organs of the mice to study overall biodistribution. The uptake of ^111In-DTPA-cNGR was determined 2 h post-injection (p.i.) for both MI (n ≥ 5) and control animals (n ≥ 4). Data were expressed as percentage of injected dose per gram tissue (%ID/g). Urinal excretion was expressed as %ID.

[3] = Matrigel plug model, ex vivo SPECT of explanted Matrigels; assay type: in vivo; conditions: male, Swiss, mouse, total radioactivity, six mice, mean ± SEM
Description: as §1, §2

Question: Which SUV (in vivo [1]; AHA segment 5 (basal inferolateral), segment 5. Basal inferolateral, MI mice n = 7, 7 days after LAD ligation, in vivo SPECT) does the source give for `CC(=O)N[C@H]1CSSC[C@@H](C(=O)NCC(=O)NCC(=O)N[C@@H](CCCCNC(=O)C2CCC(CN3C(=O)CC(SC[C@H](N)C(=O)NCCCC[C@@H](C(=O)O)N(CCN(CC(=O)O)CC(=O)O)CCN(CC(=O)O)CC(=O)O)C3=O)CC2)C(N)=O)NC(=O)[C@H](CCCNC(=N)N)NC(=O)CNC(=O)[C@H](CC(N)=O)NC1=O` (stereo partly drawn) [^111In-DTPA-cNGR, metal not drawn] (Ac-CNGRCGGK(X1)-NH2; disulfide 1-5) here?
Answer: The SUV was 0.23 ± 0.03 SUV.

Question: And the SUV (in vivo [1]; AHA segment 5 (basal inferolateral), segment 5. Basal inferolateral, healthy control mice n = 5, in vivo SPECT)?
Answer: Its SUV is 0.14 ± 0.04 SUV.

Question: What about the SUV (in vivo [1]; segment 1 basal anterior, total radioactivity, healthy control mice n = 5, in vivo SPECT) of the same compound?
Answer: The SUV was 0.16 ± 0.05 SUV.

Question: What about the SUV (in vivo [1]; segment 1 basal anterior, total radioactivity, segment 1. Basal anterior, MI mice n = 7, 7 days after LAD ligation, in vivo SPECT) of the same compound?
Answer: The SUV was 0.24 ± 0.04 SUV.

Question: What about the SUV (in vivo [1]; segment 2 basal anteroseptal, total radioactivity, healthy control mice n = 5, in vivo SPECT) of the same compound?
Answer: The SUV was 0.16 ± 0.05 SUV.

Question: And the SUV (in vivo [1]; segment 2 basal anteroseptal, total radioactivity, segment 2. Basal anteroseptal, MI mice n = 7, 7 days after LAD ligation, in vivo SPECT)?
Answer: The SUV was 0.21 ± 0.03 SUV.

Question: What about the SUV (in vivo [1]; segment 3 basal inferoseptal, total radioactivity, healthy control mice n = 5, in vivo SPECT) of the same compound?
Answer: The SUV was 0.13 ± 0.06 SUV.

Question: And the SUV (in vivo [1]; segment 3 basal inferoseptal, total radioactivity, segment 3. Basal inferoseptal, MI mice n = 7, 7 days after LAD ligation, in vivo SPECT)?
Answer: The SUV was 0.2 ± 0.02 SUV.

Question: And the SUV (in vivo [1]; segment 4 basal inferior, total radioactivity, healthy control mice n = 5, in vivo SPECT)?
Answer: Its SUV is 0.15 ± 0.05 SUV.

Question: And the SUV (in vivo [1]; segment 4 basal inferior, total radioactivity, segment 4. Basal inferior, MI mice n = 7, 7 days after LAD ligation, in vivo SPECT)?
Answer: Its SUV is 0.23 ± 0.03 SUV.

Question: What about the SUV (in vivo [1]; segment 6 basal anterolateral, total radioactivity, healthy control mice n = 5, in vivo SPECT) of the same compound?
Answer: Its SUV is 0.18 ± 0.06 SUV.

Question: What about the SUV (in vivo [1]; segment 6 basal anterolateral, total radioactivity, segment 6. Basal anterolateral, MI mice n = 7, 7 days after LAD ligation, in vivo SPECT) of the same compound?
Answer: The SUV was 0.26 ± 0.04 SUV.

Question: What about the SUV (in vivo [1]; segment 7 mid anterior, total radioactivity, healthy control mice n = 5, in vivo SPECT) of the same compound?
Answer: Its SUV is 0.15 ± 0.05 SUV.

Question: And the SUV (in vivo [1]; segment 7 mid anterior, total radioactivity, segment 7. Mid anterior, MI mice n = 7, 7 days after LAD ligation, in vivo SPECT)?
Answer: Its SUV is 0.21 ± 0.02 SUV.

Question: And the SUV (in vivo [1]; segment 8 mid anteroseptal, total radioactivity, healthy control mice n = 5, in vivo SPECT)?
Answer: Its SUV is 0.14 ± 0.06 SUV.

Question: And the SUV (in vivo [1]; segment 8 mid anteroseptal, total radioactivity, segment 8. Mid anteroseptal, MI mice n = 7, 7 days after LAD ligation, in vivo SPECT)?
Answer: The SUV was 0.2 ± 0.02 SUV.

Question: What about the SUV (in vivo [1]; segment 9 mid inferoseptal, total radioactivity, healthy control mice n = 5, in vivo SPECT) of the same compound?
Answer: The SUV was 0.12 ± 0.06 SUV.

Question: What about the SUV (in vivo [1]; segment 9 mid inferoseptal, total radioactivity, segment 9. Mid inferoseptal, MI mice n = 7, 7 days after LAD ligation, in vivo SPECT) of the same compound?
Answer: Its SUV is 0.18 ± 0.03 SUV.

Question: And the SUV (in vivo [1]; segment 10 mid inferior, total radioactivity, healthy control mice n = 5, in vivo SPECT)?
Answer: Its SUV is 0.12 ± 0.05 SUV.

Question: And the SUV (in vivo [1]; segment 10 mid inferior, total radioactivity, segment 10. Mid inferior, MI mice n = 7, 7 days after LAD ligation, in vivo SPECT)?
Answer: The SUV was 0.17 ± 0.03 SUV.

Question: What about the SUV (in vivo [1]; segment 11 mid inferolateral, total radioactivity, healthy control mice n = 5, in vivo SPECT) of the same compound?
Answer: Its SUV is 0.11 ± 0.04 SUV.

Question: And the SUV (in vivo [1]; segment 11 mid inferolateral, total radioactivity, segment 11. Mid inferolateral, MI mice n = 7, 7 days after LAD ligation, in vivo SPECT)?
Answer: Its SUV is 0.2 ± 0.03 SUV.

Question: What about the SUV (in vivo [1]; segment 12 mid anterolateral, total radioactivity, healthy control mice n = 5, in vivo SPECT) of the same compound?
Answer: Its SUV is 0.15 ± 0.05 SUV.

Question: And the SUV (in vivo [1]; segment 12 mid anterolateral, total radioactivity, segment 12. Mid anterolateral, MI mice n = 7, 7 days after LAD ligation, in vivo SPECT)?
Answer: The SUV was 0.24 ± 0.01 SUV.

Question: What about the SUV (in vivo [1]; segment 13 apical anterior, total radioactivity, healthy control mice n = 5, in vivo SPECT) of the same compound?
Answer: The SUV was 0.11 ± 0.03 SUV.

Question: And the SUV (in vivo [1]; segment 13 apical anterior, total radioactivity, segment 13. Apical anterior, MI mice n = 7, 7 days after LAD ligation, in vivo SPECT)?
Answer: The SUV was 0.21 ± 0.02 SUV.

Question: What about the SUV (in vivo [1]; segment 14 apical septal, total radioactivity, healthy control mice n = 5, in vivo SPECT) of the same compound?
Answer: Its SUV is 0.12 ± 0.04 SUV.

Question: What about the SUV (in vivo [1]; segment 14 apical septal, total radioactivity, segment 14. Apical septal, MI mice n = 7, 7 days after LAD ligation, in vivo SPECT) of the same compound?
Answer: The SUV was 0.2 ± 0.03 SUV.

Question: What about the SUV (in vivo [1]; segment 15 apical inferior, total radioactivity, healthy control mice n = 5, in vivo SPECT) of the same compound?
Answer: The SUV was 0.1 ± 0.03 SUV.

Question: What about the SUV (in vivo [1]; segment 15 apical inferior, total radioactivity, segment 15. Apical inferior, MI mice n = 7, 7 days after LAD ligation, in vivo SPECT) of the same compound?
Answer: The SUV was 0.18 ± 0.03 SUV.

Question: And the SUV (in vivo [1]; segment 16 apical lateral, total radioactivity, healthy control mice n = 5, in vivo SPECT)?
Answer: The SUV was 0.14 ± 0.04 SUV.

Question: And the SUV (in vivo [1]; segment 16 apical lateral, total radioactivity, segment 16. Apical lateral, MI mice n = 7, 7 days after LAD ligation, in vivo SPECT)?
Answer: The SUV was 0.22 ± 0.02 SUV.

Question: And the SUV (in vivo [1]; segment 17 apex, total radioactivity, healthy control mice n = 5, in vivo SPECT)?
Answer: Its SUV is 0.1 ± 0.03 SUV.

Question: What about the SUV (in vivo [1]; segment 17 apex, total radioactivity, segment 17. Apex, MI mice n = 7, 7 days after LAD ligation, in vivo SPECT) of the same compound?
Answer: The SUV was 0.2 ± 0.03 SUV.

Question: What about the “urinary excretion (urine radioactivity)” value (in vivo [2]; MI mice (n ≥ 5)) of the same compound?
Answer: Its value is 82.29 ± 4.87 %ID.

Question: What about the “urinary excretion (urine radioactivity)” value (in vivo [2]; healthy control mice (n ≥ 4)) of the same compound?
Answer: The value was 92.5 ± 1.17 %ID.

Question: And the tissue uptake at 2 h (in vivo [2]; heart, apical region, uptake in the apical region of the heart, infarcted hearts, MI mice (n ≥ 5))?
Answer: The tissue uptake at 2 h was 0.16 ± 0.0542 %ID/g.

Question: And the tissue uptake at 2 h (in vivo [2]; heart, apical region, uptake in the apical region of the heart, non-infarcted hearts, healthy control mice (n ≥ 4))?
Answer: The tissue uptake at 2 h was 0.02 ± 0.005 %ID/g.

Question: What about the tissue uptake at 2 h (in vivo [2]; kidney, kidney uptake, MI mice (n ≥ 5)) of the same compound?
Answer: Its tissue uptake at 2 h is 2.73 ± 0.42 %ID/g.

Question: And the tissue uptake at 2 h (in vivo [2]; kidney, kidney uptake, healthy control mice (n ≥ 4))?
Answer: Its tissue uptake at 2 h is 4.04 ± 0.41 %ID/g.

Question: What about the SUV ([3]; explanted control (PBS) Matrigel plug, control (PBS) Matrigels) of the same compound?
Answer: The SUV was 0.000222 SUV.

Question: What about the SUV ([3]; explanted hFGF2-supplemented Matrigel plug, hFGF2-supplemented Matrigels) of the same compound?
Answer: The SUV was 0.000824 SUV.
